The target in test [1] is cynomolgus monkey GLP-1R (cynomolgus monkey).
The next test concerns the target mouse GLP-1R (mouse) (UniProt O35659).
Test [2] concerns the target human GLP-1R (glucagon-like peptide-1 receptor) (human) (UniProt P43220).
The target of test [3] is T1, human GIPR (glucose-dependent insulinotropic polypeptide receptor) (human) (UniProt P48546).
T1 sequence: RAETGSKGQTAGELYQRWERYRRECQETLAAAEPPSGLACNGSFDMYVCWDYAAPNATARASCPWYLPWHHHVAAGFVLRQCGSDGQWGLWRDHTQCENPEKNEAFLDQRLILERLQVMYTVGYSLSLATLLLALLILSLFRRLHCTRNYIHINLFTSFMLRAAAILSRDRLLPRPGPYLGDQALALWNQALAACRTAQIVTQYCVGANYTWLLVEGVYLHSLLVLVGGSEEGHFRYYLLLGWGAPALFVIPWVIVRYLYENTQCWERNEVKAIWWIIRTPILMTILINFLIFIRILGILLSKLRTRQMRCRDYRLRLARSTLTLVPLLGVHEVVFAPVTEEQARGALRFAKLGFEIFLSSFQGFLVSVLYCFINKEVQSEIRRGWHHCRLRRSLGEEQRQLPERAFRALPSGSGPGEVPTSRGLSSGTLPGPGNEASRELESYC

Here are results for two substances from publication PMC10896721.

Chain of AMG 133 (maridebart cafraglutide) (VH): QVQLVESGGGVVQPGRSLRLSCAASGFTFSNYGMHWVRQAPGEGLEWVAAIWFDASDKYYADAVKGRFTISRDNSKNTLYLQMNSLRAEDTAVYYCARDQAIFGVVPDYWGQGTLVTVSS
Chain of AMG 133 (maridebart cafraglutide) (VL): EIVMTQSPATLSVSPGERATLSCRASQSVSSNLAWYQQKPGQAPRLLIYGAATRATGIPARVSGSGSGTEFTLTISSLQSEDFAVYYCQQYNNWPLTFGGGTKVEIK
Chain of UniProt P43220 (P43220 24-463): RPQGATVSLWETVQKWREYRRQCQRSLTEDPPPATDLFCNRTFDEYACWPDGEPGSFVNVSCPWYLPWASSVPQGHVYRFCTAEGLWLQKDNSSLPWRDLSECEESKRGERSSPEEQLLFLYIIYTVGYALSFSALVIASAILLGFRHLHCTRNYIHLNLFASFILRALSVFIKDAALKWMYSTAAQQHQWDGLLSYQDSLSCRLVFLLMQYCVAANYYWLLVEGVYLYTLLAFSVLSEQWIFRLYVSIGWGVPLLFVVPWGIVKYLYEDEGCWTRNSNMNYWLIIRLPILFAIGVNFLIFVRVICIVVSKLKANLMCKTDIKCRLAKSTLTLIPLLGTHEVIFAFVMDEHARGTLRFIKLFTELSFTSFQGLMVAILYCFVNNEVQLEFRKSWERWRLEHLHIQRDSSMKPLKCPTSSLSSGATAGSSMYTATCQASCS
Chain of UniProt O35659 (O35659 22-463): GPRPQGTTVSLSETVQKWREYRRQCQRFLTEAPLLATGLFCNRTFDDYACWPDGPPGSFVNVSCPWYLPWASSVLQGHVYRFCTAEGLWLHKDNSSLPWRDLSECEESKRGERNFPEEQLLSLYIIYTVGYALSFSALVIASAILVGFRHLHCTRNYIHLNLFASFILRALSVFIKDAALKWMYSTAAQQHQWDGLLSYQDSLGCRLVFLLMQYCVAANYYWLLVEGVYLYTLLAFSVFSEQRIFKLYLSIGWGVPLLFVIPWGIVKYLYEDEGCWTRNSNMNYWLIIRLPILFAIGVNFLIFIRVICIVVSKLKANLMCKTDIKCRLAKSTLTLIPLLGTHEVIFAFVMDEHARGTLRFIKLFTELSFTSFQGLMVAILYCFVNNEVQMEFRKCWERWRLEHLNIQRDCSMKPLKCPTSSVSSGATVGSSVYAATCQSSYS

Take AMG 133 (maridebart cafraglutide): in test [1], the EC50 of cAMP accumulation in CHO-AM1D cells expressing cynomolgus monkey GLP-1R came out at 0.0057 nM. Besides, in the test with mouse GLP-1R (mouse), the EC50 of cAMP accumulation in CHO-K1 cells expressing mouse GLP-1R stood at 0.123 nM. Moreover, the EC50 of cAMP accumulation in CHO-K1 cells expressing human GLP-1R in test [2] is 0.0244 nM.
Consider “Native GIP (glucose-dependent insulinotropic polypeptide) (from UniProt P09681 52-93) (ligand)”, for which the EC50 of cAMP accumulation in HEK 293T cells expressing human GIPR in test [3] came to 0.0066 nM.
